Experiments:
[1] = target: T1, CD137 on the surface of cells (activated human T cells; engineered CHO cells) (human, UniProt Q07011 24-255); assay: flow cytometry on activated CD8+ T cells (CD8 FITC), anti-hFc APC MFI
T1 construct: whole, on cells; also called human CD137; cell surface expressed CD137

[2] = target: T1, CD137 on the surface of cells …; assay: flow cytometry on CD137-expressing CHO cells (CHO/137), anti-hFc APC MFI
[3] = target: T1, CD137 on the surface of cells …; assay: flow cytometry on activated pan T cells gated CD8, anti-hFc APC MFI
[4] = target: T2, HER2/neu on the surface of target cells (N87, JIMT-1, MCF-7, MDA-MB231) (UniProt P04626 23-1255, limits assumed); assay: flow cytometry on N87 gastric cancer cells, anti-hFc APC MFI
T2 construct: whole, on cells

[5] = target: T1, CD137 on the surface of cells …; assay: flow cytometry on activated pan T cells gated CD8, anti-hFc APC MFI; remark: listed apart in the source
[6] = target: T1, CD137 on the surface of cells …; assay: flow cytometry on activated CD8+ T cells (donor D53781, CD8 FITC), anti-hFc APC MFI
[7] = target: T1, CD137 on the surface of cells …; assay: flow cytometry on CD137-expressing CHO cells (CHO/137), anti-hFc APC MFI; remark: listed apart in the source
[8] = target: T2, HER2/neu on the surface of target cells …; assay: flow cytometry on JIMT-1 cells, anti-hFc APC MFI
Description: (§1) CD137×TA Binding Molecules, DART-B, DART-D, DART-G and the control molecules DART-3 and DART-6 were additionally evaluated for their ability to bind to HER2/neu expressed on N87 cells (FIG. 13A) and JIMT-1 cells (FIG. 13B). For such evaluation, 100 μL of HER2/neu expressing target cells (1.0×1⁰⁶ cells/mL) and 100 μL of serially diluted (5- or 10-fold dilutions) test article (bispecific diabody) were added to each well of microtiter assay plate(s), mixed and incubated at RT for 45 min. The cells were washed with FACS Buffer and secondary antibody (anti-human-Fc region-APC) was then added to each well; mixed and incubated at RT for 30 min. Cells were washed and resuspended in 100 μL FACS Buffer and analyzed by flow cytometry (BD LSR Fortessa or FACSCanto 11) for cell event collection. Data analysis were performed via FloJo v10.

[9] = target: T2, HER2/neu on the surface of target cells …; assay: flow cytometry on N87 cells, anti-hFc APC MFI
Description: as §1

T1 sequence (Q07011 24-255, change not shown): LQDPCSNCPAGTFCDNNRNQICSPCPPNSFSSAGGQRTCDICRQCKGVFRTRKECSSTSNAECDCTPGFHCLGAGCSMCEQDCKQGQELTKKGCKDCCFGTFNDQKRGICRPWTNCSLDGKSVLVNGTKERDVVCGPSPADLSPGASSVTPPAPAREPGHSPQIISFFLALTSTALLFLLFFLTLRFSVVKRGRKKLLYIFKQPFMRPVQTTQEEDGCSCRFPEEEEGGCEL

B1: DART-6 (bispecific antibody, human IgG1, kappa, L234A L235A)
heavy: QVTLRESGPALVKPTQTLTLTCTFSGFSLSTSGMSVGWIRQPPGKALEWLADIWWDDKKDYNPSLKSRLTISKDTSKNQVVLKVTNMDPADTATYYCARSMITNWYFDVWGAGTTVTVSSASTKGPSVFPLAPSSKSTSGGTAALGCLVKDYFPEPVTVSWNSGALTSGVHTFPAVLQSSGLYSLSSVVTVPSSSLGTQTYICNVNHKPSNTKVDKRVEPKSCDKTHTCPPCPAPEAAGGPSVFLFPPKPKDTLMISRTPEVTCVVVDVSHEDPEVKFNWYVDGVEVHNAKTKPREEQYNSTYRVVSVLTVLHQDWLNGKEYKCKVSNKALPAPIEKTISKAKGQPREPQVYTLPPSREEMTKNQVSLSCAVKGFYPSDIAVEWESNGQPENNYKTTPPVLDSDGSFFLVSKLTVDKSRWQQGNVFSCSVMHEALHNRYTQKSLSLSPGK
light: DIQMTQSPSTLSASVGDRVTITCRASQSVGYMHWYQQKPGKAPKLLIYDTSKLASGVPSRFSGSGSGTEFTLTISSLQPDDFATYYCFQGSGYPFTFGGGTKLEIKRTVAAPSVFIFPPSDEQLKSGTASVVCLLNNFYPREAKVQWKVDNALQSGNSQESVTEQDSKDSTYSLSSTLTLSKADYEKHKVYACEVTHQGLSSPVTKSFNRGEC
chain 1: QVTLRESGPALVKPTQTLTLTCTFSGFSLSTSGMSVGWIRQPPGKALEWLADIWWDDKKDYNPSLKSRLTISKDTSKNQVVLKVTNMDPADTATYYCARSMITNWYFDVWGAGTTVTVSSASTKGPSVFPLAPSSKSTSGGTAALGCLVKDYFPEPVTVSWNSGALTSGVHTFPAVLQSSGLYSLSSVVTVPSSSLGTQTYICNVNHKPSNTKVDKRVEPKSCDKTHTCPPCPAPEAAGGPSVFLFPPKPKDTLMISRTPEVTCVVVDVSHEDPEVKFNWYVDGVEVHNAKTKPREEQYNSTYRVVSVLTVLHQDWLNGKEYKCKVSNKALPAPIEKTISKAKGQPREPQVYTLPPSREEMTKNQVSLWCLVKGFYPSDIAVEWESNGQPENNYKTTPPVLDSDGSFFLYSKLTVDKSRWQQGNVFSCSVMHEALHNHYTQKSLSLSPGGGGSGGGSGGGDIQMTQTTSSLSASLGDRVTISCRPSQDISNYLNWYQQKPDGTVKLLIYYTSRLRSGVPSRFSGSGSGTDYSLTISNLEQEDIATYFCQQGDTLPYTFGGGTKLEIKGGGSGGGGQVQLQQPGAELVRPGASVKLSCKASGYTFTSYWINWVKQRPGQGLEWIGNIYPSDSYTNYNQKFKDKATLTVDKSSSTAYMQLSSPTSEDSAVYYCTRDYGSSYSFDYWGQGTTLTVSSGGCGGGEVAALEKEVAALEKEVAALEKEVAALEK
chain 2: DIQMTQTTSSLSASLGDRVTISCRPSQDISNYLNWYQQKPDGTVKLLIYYTSRLRSGVPSRFSGSGSGTDYSLTISNLEQEDIATYFCQQGDTLPYTFGGGTKLEIKGGGSGGGGQVQLQQPGAELVRPGASVKLSCKASGYTFTSYWINWVKQRPGQGLEWIGNIYPSDSYTNYNQKFKDKATLTVDKSSSTAYMQLSSPTSEDSAVYYCTRDYGSSYSFDYWGQGTTLTVSSGGCGGGKVAALKEKVAALKEKVAALKEKVAALKE
notes: also called RSV×CD137 control molecule; CD137×RSV control molecule
Q: Which “EC50 (read off the curve)” value [1] does the source give for B1 here?
A: The value was ~0.02 µg/mL.

Q: And the “EC50 (read off the curve)” value [2]?
A: Its value is ~0.02 µg/mL.

Q: What about the “EC50 (read off the curve)” value [3] of the same binder?
A: Its value is ~0.2 nM.

Q: Does B1 bind [4]?
A: Result: no binding

Q: What about the “EC50 (read off the curve)” value [5] of the same binder?
A: The value was ~0.1 nM.

Q: What about the “EC50 (read off the curve)” value [6] of the same binder?
A: The value was ~0.02 µg/mL.

Q: And the “EC50 (read off the curve)” value [7]?
A: Its value is ~0.02 µg/mL.

B2: DART-3 (bispecific antibody)
chain 1: not shown
chain 2: DIQMTQSPSTLSASVGDRVTITCRASQSVGYMHWYQQKPGKAPKLLIYDTSKLASGVPSRFSGSGSGTEFTLTISSLQPDDFATYYCFQGSGYPFTFGGGTKLEIKGGGSGGGGQVQLVQSGAEVKKPGASVKVSCKASGYTFTNYGMNWVRQAPGQGLEWMGWINTNIGEPTYTEEFKGRVTMTRDTSISTAYMELSRLRSDDTAVYYCARDDGYGNRVSYWGQGTLVTVSSGGCGGGKVAACKEKVAALKEKVAALKEKVAALKE
notes: also called HER2×RSV control molecule; HER2/neu×RSV control molecule
Q: What does the source list for B2?
A: EC50 (read off the curve) [8]: ~0.03 µg/mL; binding result [3]: no binding; EC50 (read off the curve) [4]: ~0.5 nM; EC50 (read off the curve) [9]: ~0.05 µg/mL
